The values that follow come from PMC9386465.

Where two headings read alike, the source gives them in different places.

For data set [1], the target named is T1, ErmS (TlrA) rRNA adenine-N6 dimethyltransferase (Streptomyces fradiae, UniProt P45439 1-319).
T1 sequence: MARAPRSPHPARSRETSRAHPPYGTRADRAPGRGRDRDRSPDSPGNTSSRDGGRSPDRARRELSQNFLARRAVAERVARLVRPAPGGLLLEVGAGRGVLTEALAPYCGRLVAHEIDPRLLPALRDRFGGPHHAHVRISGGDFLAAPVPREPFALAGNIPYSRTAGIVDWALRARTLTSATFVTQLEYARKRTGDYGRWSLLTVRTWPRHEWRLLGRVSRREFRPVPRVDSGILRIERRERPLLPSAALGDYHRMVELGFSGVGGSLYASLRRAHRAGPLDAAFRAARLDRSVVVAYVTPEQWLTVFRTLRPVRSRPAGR
The data set is described as follows: stopped-flow fluorescence.

Data set [2] has as its target T1, ErmS (TlrA) rRNA adenine-N6 …. The data set is described as follows: stopped-flow fluorescence. The source holds these as a separate data set.

In the case of GGCAAGACGGAAAGACCCCUAUCUGCC (structured_RNA, 2-aminopurine replaces A2058 (nt 11)) [2Ap2058], the binding result in data set [1] is listed as “binds”.

Turning to GGCAAGACGGAAAGACCCCUAUCUGCC (structured_RNA, 2-aminopurine replaces A2054 (nt 7)) [2Ap2054], the binding result in data set [2] is “binds”.
